Legend:
Conditions in all cases: 20 nM; 72 h
MCF10A [1] = test: 5+ nucleoli phenotype percent effect (relative to siNT 0% and siKIF11 100%); higher = more cells with five or more nucleoli
Experimental: (§1)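 After 72 h, cells were fixed and stained with Hoechst and anti-fibrillarin, and nucleoli per nucleus were counted with CellProfiler. Values are plate-adjusted percent effect for the one-nucleolus and 5+ nucleoli phenotypes, normalised to siNT (0%) and to the positive controls siNOL11 or siKIF11 (100%), as the mean of biological triplicates. Percent viability is the nuclei count relative to siNT.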

MCF10A [2] = test: one-nucleolus phenotype percent effect (relative to siNT 0% and siNOL11 100%); higher = more cells with one nucleolus (ribosome biogenesis inhibition)
Experimental: as §1

MCF10A [3] = test: percent viability (nuclei count relative to siNT); higher = more viable cells
Experimental: as §1

| Sequence | 5+ nucleoli phenotype percent effect (MCF10A [1]) [%] | one-nucleolus phenotype percent effect (MCF10A [2]) [%] | percent viability (MCF10A [3]) [%] |
| --- | --- | --- | --- |
| ACCCCACUCCUGGUACC [hsa-miR-4286] | 39.7 | -13.8 | 48.7 |
| ACCCCCGGGCAAAGACCUGCAGAU [hsa-miR-6840-5p] | -18.8 | 5.12 | 92 |
| ACCCCUCGUUUCUUCCCCCAG [hsa-miR-6795-3p] | 14.8 | -18.5 | 101 |
| ACCCCUGCCACUCACUGGCC [hsa-miR-6801-3p] | 1.82 | -4.08 | 62 |
| ACCCGCCCGUCUCCCCACAG [hsa-miR-7108-3p] | 28.2 | -20.7 | 110 |
| ACCCGUCCCGUUCGUCCCCGGA [hsa-miR-1247-5p] | 2.26 | -16.3 | 116 |
| ACCCUAUCAAUAUUGUCUCUGC [hsa-miR-454-5p] | 45.6 | -29.8 | 81.2 |
| ACCCUCGUCAGGUCCCCGGGG [hsa-miR-4655-3p] | 6.66 | -5.11 | 56.9 |
| ACCCUUGAGCCUGAUCCCUAGC [hsa-miR-4780] | 4 | -13.2 | 99.8 |
| ACCCUUUUUCUCUUUCCCAG [hsa-miR-6832-3p] | 38.2 | -12.4 | 76.6 |
| ACCGAAGACUGUGCGCUAAUCU [hsa-miR-4671-5p] | 14.8 | -20.7 | 99.3 |
| ACCGCCUGCCCAGUGA [hsa-miR-4485-5p] | 24.1 | -16.3 | 70.4 |
| ACCGUCUCUUCUGUUCCCCAG [hsa-miR-6827-3p] | -12.7 | 16.9 | 64.6 |
| ACCGUGCAAAGGUAGCAUA [hsa-miR-1973] | -30.8 | 2.66 | 119 |
| ACCGUGGCUUUCGAUUGUUACU [hsa-miR-132-5p] | -7.44 | -1.09 | 68.8 |
| ACCUCCUGUGUGCAUGGAUUA [hsa-miR-660-3p] | -17.5 | 16.9 | 37.2 |
| ACCUGAAUUACCAAAAGCUUU [hsa-miR-3140-5p] | 26.3 | -18.7 | 118 |
| ACCUGAGGUUGUGCAUUUCUAA [hsa-miR-544b] | -17.6 | 20.9 | 45.3 |
| ACCUGCCAGCACCUCCCUGCAG [hsa-miR-4722-3p] | -32.2 | 10.5 | 53.9 |
| ACCUGGACCCAGCGUAGACAAAG [hsa-miR-3690] | 65 | -25.7 | 79.1 |
| ACCUGGCAGCAGGGAGCGUCGU [hsa-miR-8073] | -35.6 | 28.9 | 33.8 |
| ACCUGGCAUACAAUGUAGAUUU [hsa-miR-221-5p] | -26.8 | 62.6 | 36 |
| ACCUGGGUUGUCCCCUCUAG [hsa-miR-6742-3p] | 73.9 | -15.1 | 90.1 |
| ACCUGUCUGUGGAAAGGAGCUA [hsa-miR-4421] | -6.29 | 15.9 | 30.7 |
| ACCUUCCUCUCCAUGGGUCUUU [hsa-miR-3667-3p] | -21.3 | 18.2 | 32 |

— the supplement of paper PMC10899765
